Measured values published in US20200170258A1.

Assays:
[1] = target: … SENSING 2 (FLS2) of soybean (soybean); test: cell-based or functional assay
[2] = target: FLS2 receptor of Arabidopsis thaliana (Arabidopsis thaliana) (UniProt Q9FL28); test: cell-based or functional assay
FLS2 receptor of Arabidopsis thaliana (Arabidopsis thaliana), sequence (Q9FL28 24-1173): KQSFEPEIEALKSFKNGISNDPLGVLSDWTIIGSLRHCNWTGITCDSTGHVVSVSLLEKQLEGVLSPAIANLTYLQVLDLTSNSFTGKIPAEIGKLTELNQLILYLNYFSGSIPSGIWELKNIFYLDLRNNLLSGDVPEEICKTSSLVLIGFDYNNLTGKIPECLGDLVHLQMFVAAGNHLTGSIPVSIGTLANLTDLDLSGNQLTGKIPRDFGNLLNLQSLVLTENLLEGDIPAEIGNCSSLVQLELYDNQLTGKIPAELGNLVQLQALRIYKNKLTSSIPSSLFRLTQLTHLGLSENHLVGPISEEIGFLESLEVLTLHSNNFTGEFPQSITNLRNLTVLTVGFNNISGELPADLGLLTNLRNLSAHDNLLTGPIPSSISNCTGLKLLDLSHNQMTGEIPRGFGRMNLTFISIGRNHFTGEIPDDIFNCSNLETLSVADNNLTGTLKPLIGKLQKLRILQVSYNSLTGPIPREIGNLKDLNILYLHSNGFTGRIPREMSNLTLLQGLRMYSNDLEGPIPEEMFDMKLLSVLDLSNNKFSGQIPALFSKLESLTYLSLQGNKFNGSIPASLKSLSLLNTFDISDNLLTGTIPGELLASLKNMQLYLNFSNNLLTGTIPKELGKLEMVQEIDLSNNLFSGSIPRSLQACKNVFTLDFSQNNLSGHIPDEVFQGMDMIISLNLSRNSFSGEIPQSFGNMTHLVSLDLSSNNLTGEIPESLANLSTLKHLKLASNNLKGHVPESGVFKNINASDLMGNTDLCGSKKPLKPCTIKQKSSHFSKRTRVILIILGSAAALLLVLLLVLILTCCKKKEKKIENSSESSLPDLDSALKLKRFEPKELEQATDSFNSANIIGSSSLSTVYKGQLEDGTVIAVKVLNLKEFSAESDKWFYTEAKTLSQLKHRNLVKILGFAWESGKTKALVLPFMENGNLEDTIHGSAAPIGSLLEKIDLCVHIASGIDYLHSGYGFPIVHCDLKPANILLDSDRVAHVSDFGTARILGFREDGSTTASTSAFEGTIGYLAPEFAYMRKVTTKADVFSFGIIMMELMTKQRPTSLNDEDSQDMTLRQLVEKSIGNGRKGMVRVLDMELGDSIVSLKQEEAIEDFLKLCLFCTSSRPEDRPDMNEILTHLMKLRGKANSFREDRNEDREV

| Binder | % Activity (compared to unmodified Bt.4Q7Flg22), soybean ROS assay [1] [%] | ROS activity in Arabidopsis leaf tissue, Average RLU value, 100 nM [2] [RLU] | ROS activity in Arabidopsis leaf tissue, fold increase over mock treatment, 100 nM [2] [fold] |
| --- | --- | --- | --- |
| Ac-DRLSSGKRINSASDDAAGLAIA-NH2 [Bt.4Q7Flg22 Mod-1] | 106 |  |  |
| DRLSSGKRINSASDDAAGLAIA [Bt.4Q7Flg22] | 100 | 258000 | 3.1 |
